A word on the pKd: it is the negative decadic logarithm of the Kd, by convention in mol/L.

pKd: −log10 of the molar value.

This passage reports binding signal, Kd and binding signal (fold lower Kd than wild type (3.9 nM)) results from publication PMC7356742.

In data set [1] the test system is RsuA G127C-Cy5 (Escherichia coli). The data set is described as follows: FRET. Particulars: 4 mM Mg2+, FRET: 80 mM K-Hepes pH 7.6, 330 mM KCl, 0-20 mM MgCl2, 2 nM RNA folded at 37 C. Filter binding: 80 mM K-Hepes pH 7.6, 50 mM KCl, 4 mM MgCl2, 6 mM …; for binding signal: scale: fold higher affinity than wild type.
For data set [2], the system named is RsuA wild type (Escherichia coli). Nature of the data set: filter binding. The settings on record: 4 mM Mg2+; fit 0-2 uM, bound fraction falls above 2 uM; FRET: 80 mM K-Hepes pH 7.6, 330 mM KCl, 0-20 mM MgCl2, 2 nM RNA folded at 37 C. Filter binding: 80 mM K-Hepes pH 7.6, 50 mM KCl, 4 mM MgCl2, 6 mM ….
The subject of data set [3] is RsuAΔN (S4-like domain truncation) (Escherichia coli). Nature of the data set: filter binding. Particulars: 4 mM Mg2+; fit 0-15 uM; FRET: 80 mM K-Hepes pH 7.6, 330 mM KCl, 0-20 mM MgCl2, 2 nM RNA folded at 37 C. Filter binding: 80 mM K-Hepes pH 7.6, 50 mM KCl, 4 mM MgCl2, 6 mM ….

Take 16S 5'-domain G505C:G506C: the binding signal in data set [1] is more than 30.
Regarding 16S 5'-domain rRNA (filter binding), the pKd in data set [2] was 7.92; in data set [3], 7.24.
Turning to 16S 5'-domain C507G, the binding signal (fold lower Kd than wild type (3.9 nM)) in data set [1] amounted to 390.
16S 5'-domain G505C yielded a binding signal in data set [1] of more than 30.
